Reference: paper PMC8138844 (Cell Research, 2021)

Target: SARS-CoV-2 S protein receptor-binding domain (RBD), residues 319–541 (SARS-CoV-2, UniProt P0DTC2)
Test: crystal structure
Conditions: both partners purified

B1: BD-515 Fab (Fab, V domains shown)
VH: EVQLVESGGGLVQPGGSLRLSCAASEFIVSRNYMSWVRQAPGKGLEWVSVIYSGGSTFYADSVKGRFTISRDNSKNTLYLQMNSLRAEDTGVYYCARDRGLVSDYWGQGTLVTVSS
VL: DIQMTQSPSSLSASVGDRVTITCQASQDINKYLNWYQQKPGKAPKLLIFDASHLETGVPSRFSASGSGTDFTFTISSLQPEDIATYYCHQYDNLPRTFGQGTRLEIK
- binding result: binds

B2: BD-623 Fab (Fab, V domains shown)
VH: EVQLVESGGGLVQPGGSLRLSCAASGVTVSSNYMSWVRQAPGKGLEWVSAVYSGGSTYYADSVKGRFTISRHNSKNTLYLQMKSLRPEDTAIYYCARLINHYYDSSGDGGAFDIWGQGTMVTVSS
VL: LTQPASVSGSPGQSITISCTGTSSDVGSYNLVSWYQQRPGKAPKLILYEVTKRPSGVSNRFSGSKSGNTASLAISGLQAEDEADYYCCSYAGSSTWVFGGGTKLTVL
- binding result: binds

B3: BD-508 Fab (Fab, V domains shown)
VH: EVQLVESGGGLVQPGGSLRLSCAASGFIVSSNYMTWVRQAPGKGLEWVSVIYSGGSTFYADSVKGRFTISRHNSKNTLFLQMNSLRAEDTAVYYCARDAQNYGMDVWGQGTTVTVSS
VL: DIQMTQSPSSLSASVGDRVTITCRASQSISSYLNWYQQKPGKAPKLLIFAASSLQTGAPSRFSGSGSGTDFTLTISSLQPEDFATYYCQQSYSTPPYTFGQGTKLEIK
- binding result: binds
